From US20130058939A1

Target: low-density lipoprotein (LDL) receptor-related protein (LRP) on bovine brain capillary endothelial cells of the in vitro BBB model (bovine)
Assay: cell-based or functional assay
Details: for alteplase (% of passage versus filter), spectrozyme assay, in vitro BBB model: scale: % of passage versus filter for alteplase alone

Chain of DSPA α2 (alpha 2) (P15638 37-477 limits assumed): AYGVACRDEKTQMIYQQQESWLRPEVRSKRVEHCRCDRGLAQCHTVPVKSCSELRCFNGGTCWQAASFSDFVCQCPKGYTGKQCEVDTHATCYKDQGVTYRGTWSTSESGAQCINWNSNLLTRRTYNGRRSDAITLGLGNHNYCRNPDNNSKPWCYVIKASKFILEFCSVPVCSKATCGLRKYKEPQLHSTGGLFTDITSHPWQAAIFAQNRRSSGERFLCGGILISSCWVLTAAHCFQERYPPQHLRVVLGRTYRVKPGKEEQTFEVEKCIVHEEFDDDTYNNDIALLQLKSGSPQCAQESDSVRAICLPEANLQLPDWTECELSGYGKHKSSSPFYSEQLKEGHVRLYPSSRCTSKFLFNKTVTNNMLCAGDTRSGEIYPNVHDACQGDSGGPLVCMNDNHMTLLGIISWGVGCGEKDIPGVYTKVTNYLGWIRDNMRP
Chain of DSPAα1 (Desmoteplase) (P98119 37-477 limits assumed): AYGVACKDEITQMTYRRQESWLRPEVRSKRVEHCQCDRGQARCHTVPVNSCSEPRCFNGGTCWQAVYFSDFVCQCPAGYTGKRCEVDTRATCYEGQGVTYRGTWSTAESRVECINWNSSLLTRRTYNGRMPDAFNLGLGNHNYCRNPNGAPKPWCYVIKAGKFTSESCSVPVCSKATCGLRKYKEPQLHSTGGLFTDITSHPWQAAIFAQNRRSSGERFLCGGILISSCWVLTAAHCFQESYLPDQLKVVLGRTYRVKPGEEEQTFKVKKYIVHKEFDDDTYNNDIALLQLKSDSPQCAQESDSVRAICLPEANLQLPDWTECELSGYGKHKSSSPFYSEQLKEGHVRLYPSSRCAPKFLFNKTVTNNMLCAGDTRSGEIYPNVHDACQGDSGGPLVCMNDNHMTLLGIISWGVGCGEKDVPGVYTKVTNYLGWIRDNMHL
Chain of clogged Desmoteplase (cDSPA), DSPA alpha 1 inactivated with D-phenyl-prolyl-arginine chloromethyl ketone (P98119 37-477 limits assumed): as above

% of abluminal alteplase (zymography assay; alteplase alone = 100), in vitro BBB model (% of abluminal alteplase alone) | alteplase (% of passage versus filter), spectrozyme assay, in vitro BBB model | Substance
25.1 | 61.9 | DSPA α2 (alpha 2) (from UniProt P15638 37-477) (enzyme)
46.6 | 67 | DSPAα1 (Desmoteplase) (from UniProt P98119 37-477) (enzyme)
51.6 |  | Reteplase (Rapilysin) (enzyme)
73.3 | 76.3 | clogged Desmoteplase (cDSPA), DSPA alpha 1 inactivated with D-phenyl-prolyl-arginine chloromethyl ketone (from UniProt P98119 37-477) (enzyme)
